What was measured:
[1] = biological target: PilZ_(W69_5OHW) (Xanthomonas citri pv. citri strain 306); experiment: other fluorescence titration
[2] = biological target: PilB_(12-163) (Xanthomonas citri pv. citri strain 306); experiment: SEC-MALS
[3] = biological target: PilB_(1-190), His tag removed (Xanthomonas citri pv. citri strain 306); experiment: SEC-MALS
[4] = biological target: full-length FimX (Xanthomonas citri pv. citri strain 306); experiment: SEC-MALS; full-length proteins and complexes; silica-based WTC column 7.8/300; 50 mM Tris-HCl pH 8.0, 50 mM NaCl, 5 mM MgCl2; without and with ATPγS and/or c-di-GMP (1:2 protein to ligand)

FimXEAL (domain or fragment)
Kd [1]: 0.2 µM

His-tagged PilB_(1-190) (from UniProt A0AAI7ZH88 1-190) (domain or fragment)
Kd [1]: < 0.0041 µM

PilZ (XAC1133), wild type, recombinant (from UniProt A0AAI7ZDW4 1-117) (natural protein)
stoichiometry N [2]: 1 | stoichiometry N [3]: 1

full-length FimX (natural protein)
stoichiometry N [4]: 2
